Test results from patent US20220202905A1, “COMPOSITION FOR PREVENTING OR TREATING NEUROTROPHIC KERATITIS WHICH CONTAINS PACAP PEPTIDE OR STABILIZED PACAP PEPTIDE” (SENJU PHARMACEUTICAL CO., LTD., priority 2019, published 2022).
Square brackets hold non-standard residues; d marks the D form. Ala(1H-tetrazol-5-yl) = N[C@@H](Cc1nnn[nH]1)C(=O)O

What was measured:
PAC1 receptor = target: T1, PAC1 receptor (UniProt P41586 21-468, limits assumed); assay: cell-based or functional assay
T1 sequence (looked up): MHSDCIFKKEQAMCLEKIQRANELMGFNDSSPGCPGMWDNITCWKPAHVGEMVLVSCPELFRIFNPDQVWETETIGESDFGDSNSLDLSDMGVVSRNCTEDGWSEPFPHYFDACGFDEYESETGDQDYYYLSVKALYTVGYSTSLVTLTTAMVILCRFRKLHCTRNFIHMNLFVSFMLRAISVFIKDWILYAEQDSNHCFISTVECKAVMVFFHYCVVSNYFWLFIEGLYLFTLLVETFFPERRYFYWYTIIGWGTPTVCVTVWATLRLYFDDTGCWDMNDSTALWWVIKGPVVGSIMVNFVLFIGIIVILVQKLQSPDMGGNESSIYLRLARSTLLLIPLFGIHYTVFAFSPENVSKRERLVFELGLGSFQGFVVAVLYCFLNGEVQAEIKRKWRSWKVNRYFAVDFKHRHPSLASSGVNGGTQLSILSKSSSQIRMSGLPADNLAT

VPAC1 receptor = target: T2, VPAC1 receptor (UniProt P32241 31-457, limits assumed); assay: cell-based or functional assay
T2 sequence (looked up): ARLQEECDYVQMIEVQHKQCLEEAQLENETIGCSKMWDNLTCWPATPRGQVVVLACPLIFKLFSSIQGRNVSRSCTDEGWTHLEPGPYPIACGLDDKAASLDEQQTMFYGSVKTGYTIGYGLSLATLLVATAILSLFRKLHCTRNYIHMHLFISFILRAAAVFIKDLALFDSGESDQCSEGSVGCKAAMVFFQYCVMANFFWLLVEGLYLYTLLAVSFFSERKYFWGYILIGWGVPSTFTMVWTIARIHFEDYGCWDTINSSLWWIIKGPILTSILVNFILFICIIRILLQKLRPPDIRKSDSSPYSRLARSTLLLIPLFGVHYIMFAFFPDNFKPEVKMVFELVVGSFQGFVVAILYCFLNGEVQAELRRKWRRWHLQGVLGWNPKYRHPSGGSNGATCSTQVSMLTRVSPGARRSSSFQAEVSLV

B1: Peptide 21 (peptide)
peptide: Ac-HS[Ala(1H-tetrazol-5-yl)]GIFT[Ala(1H-tetrazol-5-yl)]SYSRYRRQLAVRRYLAAVL-NH2
SMILES: CC[C@H](C)[C@H](NC(=O)CNC(=O)[C@H](Cc1nnn[nH]1)NC(=O)[C@H](CO)NC(=O)[C@H](Cc1c[nH]cn1)NC(C)=O)C(=O)N[C@@H](Cc1ccccc1)C(=O)N[C@H](C(=O)N[C@@H](Cc1nnn[nH]1)C(=O)N[C@@H](CO)C(=O)N[C@@H](Cc1ccc(O)cc1)C(=O)N[C@@H](CO)C(=O)N[C@@H](CCCNC(=N)N)C(=O)N[C@@H](Cc1ccc(O)cc1)C(=O)N[C@@H](CCCNC(=N)N)C(=O)N[C@@H](CCCNC(=N)N)C(=O)N[C@@H](CCC(N)=O)C(=O)N[C@@H](CC(C)C)C(=O)N[C@@H](C)C(=O)N[C@H](C(=O)N[C@@H](CCCNC(=N)N)C(=O)N[C@@H](CCCNC(=N)N)C(=O)N[C@@H](Cc1ccc(O)cc1)C(=O)N[C@@H](CC(C)C)C(=O)N[C@@H](C)C(=O)N[C@@H](C)C(=O)N[C@H](C(=O)N[C@@H](CC(C)C)C(N)=O)C(C)C)C(C)C)[C@@H](C)O
EC50 (PAC1R), cAMP inducing effect (PAC1 receptor): 0.102 nM
EC50 (VPAC1R), cAMP inducing effect (VPAC1 receptor): 0.268 nM

B2: Peptide 22 (peptide)
peptide: Ac-HS[Ala(1H-tetrazol-5-yl)]GIFT[Ala(1H-tetrazol-5-yl)]SYSRYRRQLAVRRYLAAVLGRR-NH2
SMILES: CC[C@H](C)[C@H](NC(=O)CNC(=O)[C@H](Cc1nnn[nH]1)NC(=O)[C@H](CO)NC(=O)[C@H](Cc1c[nH]cn1)NC(C)=O)C(=O)N[C@@H](Cc1ccccc1)C(=O)N[C@H](C(=O)N[C@@H](Cc1nnn[nH]1)C(=O)N[C@@H](CO)C(=O)N[C@@H](Cc1ccc(O)cc1)C(=O)N[C@@H](CO)C(=O)N[C@@H](CCCNC(=N)N)C(=O)N[C@@H](Cc1ccc(O)cc1)C(=O)N[C@@H](CCCNC(=N)N)C(=O)N[C@@H](CCCNC(=N)N)C(=O)N[C@@H](CCC(N)=O)C(=O)N[C@@H](CC(C)C)C(=O)N[C@@H](C)C(=O)N[C@H](C(=O)N[C@@H](CCCNC(=N)N)C(=O)N[C@@H](CCCNC(=N)N)C(=O)N[C@@H](Cc1ccc(O)cc1)C(=O)N[C@@H](CC(C)C)C(=O)N[C@@H](C)C(=O)N[C@@H](C)C(=O)N[C@H](C(=O)N[C@@H](CC(C)C)C(=O)NCC(=O)N[C@@H](CCCNC(=N)N)C(=O)N[C@@H](CCCNC(=N)N)C(N)=O)C(C)C)C(C)C)[C@@H](C)O
EC50 (PAC1R), cAMP inducing effect (PAC1 receptor): 0.13 nM
EC50 (VPAC1R), cAMP inducing effect (VPAC1 receptor): 0.457 nM

B3: Peptide 23 (peptide)
peptide: HSXAIFTXSYSRYRKQLAVKKYLAAVL
modifications: N-terminal acetyl (Ac-); Tz (aspartic acid with carboxyl group replaced by tetrazole) at positions 3 and 8; C-terminal amide (NH2)
EC50 (PAC1R), cAMP inducing effect (PAC1 receptor): 0.079 nM
EC50 (VPAC1R), cAMP inducing effect (VPAC1 receptor): 0.072 nM

B4: Peptide 24 (peptide)
peptide: Ac-HA[Ala(1H-tetrazol-5-yl)]GIFT[Ala(1H-tetrazol-5-yl)]AYSRYRKQLAVKKYLAAVL-NH2
SMILES: CC[C@H](C)[C@H](NC(=O)CNC(=O)[C@H](Cc1nnn[nH]1)NC(=O)[C@H](C)NC(=O)[C@H](Cc1c[nH]cn1)NC(C)=O)C(=O)N[C@@H](Cc1ccccc1)C(=O)N[C@H](C(=O)N[C@@H](Cc1nnn[nH]1)C(=O)N[C@@H](C)C(=O)N[C@@H](Cc1ccc(O)cc1)C(=O)N[C@@H](CO)C(=O)N[C@@H](CCCNC(=N)N)C(=O)N[C@@H](Cc1ccc(O)cc1)C(=O)N[C@@H](CCCNC(=N)N)C(=O)N[C@@H](CCCCN)C(=O)N[C@@H](CCC(N)=O)C(=O)N[C@@H](CC(C)C)C(=O)N[C@@H](C)C(=O)N[C@H](C(=O)N[C@@H](CCCCN)C(=O)N[C@@H](CCCCN)C(=O)N[C@@H](Cc1ccc(O)cc1)C(=O)N[C@@H](CC(C)C)C(=O)N[C@@H](C)C(=O)N[C@@H](C)C(=O)N[C@H](C(=O)N[C@@H](CC(C)C)C(N)=O)C(C)C)C(C)C)[C@@H](C)O
EC50 (PAC1R), cAMP inducing effect (PAC1 receptor): 0.083 nM
EC50 (VPAC1R), cAMP inducing effect (VPAC1 receptor): 0.088 nM

B5: Peptide 25 (peptide)
peptide: Ac-HA[Ala(1H-tetrazol-5-yl)]GIFT[Ala(1H-tetrazol-5-yl)]SYSRYRKQAAVKKYLAAVL-NH2
SMILES: CC[C@H](C)[C@H](NC(=O)CNC(=O)[C@H](Cc1nnn[nH]1)NC(=O)[C@H](C)NC(=O)[C@H](Cc1c[nH]cn1)NC(C)=O)C(=O)N[C@@H](Cc1ccccc1)C(=O)N[C@H](C(=O)N[C@@H](Cc1nnn[nH]1)C(=O)N[C@@H](CO)C(=O)N[C@@H](Cc1ccc(O)cc1)C(=O)N[C@@H](CO)C(=O)N[C@@H](CCCNC(=N)N)C(=O)N[C@@H](Cc1ccc(O)cc1)C(=O)N[C@@H](CCCNC(=N)N)C(=O)N[C@@H](CCCCN)C(=O)N[C@@H](CCC(N)=O)C(=O)N[C@@H](C)C(=O)N[C@@H](C)C(=O)N[C@H](C(=O)N[C@@H](CCCCN)C(=O)N[C@@H](CCCCN)C(=O)N[C@@H](Cc1ccc(O)cc1)C(=O)N[C@@H](CC(C)C)C(=O)N[C@@H](C)C(=O)N[C@@H](C)C(=O)N[C@H](C(=O)N[C@@H](CC(C)C)C(N)=O)C(C)C)C(C)C)[C@@H](C)O
EC50 (PAC1R), cAMP inducing effect (PAC1 receptor): 0.088 nM
EC50 (VPAC1R), cAMP inducing effect (VPAC1 receptor): 0.028 nM

B6: Peptide 26 (peptide)
peptide: Ac-HS[Ala(1H-tetrazol-5-yl)]GIFT[Ala(1H-tetrazol-5-yl)]AYSRYRKALAVKKYLAAVL-NH2
SMILES: CC[C@H](C)[C@H](NC(=O)CNC(=O)[C@H](Cc1nnn[nH]1)NC(=O)[C@H](CO)NC(=O)[C@H](Cc1c[nH]cn1)NC(C)=O)C(=O)N[C@@H](Cc1ccccc1)C(=O)N[C@H](C(=O)N[C@@H](Cc1nnn[nH]1)C(=O)N[C@@H](C)C(=O)N[C@@H](Cc1ccc(O)cc1)C(=O)N[C@@H](CO)C(=O)N[C@@H](CCCNC(=N)N)C(=O)N[C@@H](Cc1ccc(O)cc1)C(=O)N[C@@H](CCCNC(=N)N)C(=O)N[C@@H](CCCCN)C(=O)N[C@@H](C)C(=O)N[C@@H](CC(C)C)C(=O)N[C@@H](C)C(=O)N[C@H](C(=O)N[C@@H](CCCCN)C(=O)N[C@@H](CCCCN)C(=O)N[C@@H](Cc1ccc(O)cc1)C(=O)N[C@@H](CC(C)C)C(=O)N[C@@H](C)C(=O)N[C@@H](C)C(=O)N[C@H](C(=O)N[C@@H](CC(C)C)C(N)=O)C(C)C)C(C)C)[C@@H](C)O
EC50 (PAC1R), cAMP inducing effect (PAC1 receptor): 0.066 nM
EC50 (VPAC1R), cAMP inducing effect (VPAC1 receptor): 0.075 nM

B7: Peptide 27 (peptide)
peptide: Ac-HS[Ala(1H-tetrazol-5-yl)]GIFT[Ala(1H-tetrazol-5-yl)]AYSRYRKQAAVKKYLAAVL-NH2
SMILES: CC[C@H](C)[C@H](NC(=O)CNC(=O)[C@H](Cc1nnn[nH]1)NC(=O)[C@H](CO)NC(=O)[C@H](Cc1c[nH]cn1)NC(C)=O)C(=O)N[C@@H](Cc1ccccc1)C(=O)N[C@H](C(=O)N[C@@H](Cc1nnn[nH]1)C(=O)N[C@@H](C)C(=O)N[C@@H](Cc1ccc(O)cc1)C(=O)N[C@@H](CO)C(=O)N[C@@H](CCCNC(=N)N)C(=O)N[C@@H](Cc1ccc(O)cc1)C(=O)N[C@@H](CCCNC(=N)N)C(=O)N[C@@H](CCCCN)C(=O)N[C@@H](CCC(N)=O)C(=O)N[C@@H](C)C(=O)N[C@@H](C)C(=O)N[C@H](C(=O)N[C@@H](CCCCN)C(=O)N[C@@H](CCCCN)C(=O)N[C@@H](Cc1ccc(O)cc1)C(=O)N[C@@H](CC(C)C)C(=O)N[C@@H](C)C(=O)N[C@@H](C)C(=O)N[C@H](C(=O)N[C@@H](CC(C)C)C(N)=O)C(C)C)C(C)C)[C@@H](C)O
EC50 (PAC1R), cAMP inducing effect (PAC1 receptor): 0.06 nM
EC50 (VPAC1R), cAMP inducing effect (VPAC1 receptor): 0.044 nM
